Experimental findings from article PMC3470933 (Molecular Microbiology, 2012) are described below.

For series [1], the target named is T1, T. brucei pyridoxal kinase (TbPdxK) (Trypanosoma brucei, UniProt O15927).
T1 sequence (O15927 1-300): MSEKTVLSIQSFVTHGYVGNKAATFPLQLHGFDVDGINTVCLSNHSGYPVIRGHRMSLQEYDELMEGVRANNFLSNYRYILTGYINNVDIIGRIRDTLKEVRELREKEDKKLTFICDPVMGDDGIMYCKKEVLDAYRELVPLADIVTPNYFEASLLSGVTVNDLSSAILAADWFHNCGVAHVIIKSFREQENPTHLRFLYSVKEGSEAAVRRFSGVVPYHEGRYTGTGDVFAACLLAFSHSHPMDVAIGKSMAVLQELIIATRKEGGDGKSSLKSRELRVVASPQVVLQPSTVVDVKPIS
Description: coupled PK/LDH assay. The series is classed as biochemical. The note with it: read-out: Km^app.

Substrate in series [2]: Cc1ncc(CO)c(C=O)c1O
In words: purified protein. The series is classed as biochemical, Trypanosoma brucei. The conditions noted are these: ATP, Mg2+.

Substrate in series [3]: Cc1ncc(CO)c(CN)c1O
In words: purified protein. The class given is biochemical, Trypanosoma brucei. The note with it: ATP, Mg2+.

Substrate in series [4]: Cc1ncc(CO)c(CO)c1O
Description: purified protein. The class given is biochemical, Trypanosoma brucei. The note with it: ATP, Mg2+.

Regarding `COCc1c(CO)cnc(C)c1O` [GT, ginkgotoxin], the Michaelis-Menten constant (Km) in series [1] is 46.6 ± 10.2 µM.

B1: T. brucei pyridoxal kinase (TbPdxK) (Trypanosoma brucei) (protein)
chain: T1 sequence (O15927 1-300)
As for B1, the Km in the series “purified protein [2]” was 1.65 ± 0.14 µM; in the series “purified protein [3]”, 59.4 ± 14.8 µM; in the series “purified protein [4]”, 48.0 ± 12.7 µM.

As a reminder, the Km is the substrate concentration at which the rate is half of its maximum.
